# According to IntAct's records for PubMed 22396535:
# B1: Paired immunoglobulin-like type 2 receptor alpha (Homo sapiens), Q9UKJ1 (parent)
# chain: MGRPLLLPLLPLLLPPAFLQPSGSTGSGPSYLYGVTQPKHLSASMGGSVEIPFSFYYPWELATAPDVRISWRRGHFHRQSFYSTRPPSIHKDYVNRLFLNWTEGQKSGFLRISNLQKQDQSVYFCRVELDTRSSGRQQWQSIEGTKLSITQAVTTTTQRPSSMTTTWRLSSTTTTTGLRVTQGKRRSDSWHISLETAVGVAVAVTVLGIMILGLICLLRWRRRKGQQRTKATTPAREPFQNTEEPYENIRNEGQNTDPKLNPKDDGIVYASLALSSSTSPRAPPSHRPLKSPQNETLYSVLKA
# B2: Paired immunoglobulin-like type 2 receptor alpha (Homo sapiens), Q9UKJ1 (parent)
# chain: B1 chain
# partner: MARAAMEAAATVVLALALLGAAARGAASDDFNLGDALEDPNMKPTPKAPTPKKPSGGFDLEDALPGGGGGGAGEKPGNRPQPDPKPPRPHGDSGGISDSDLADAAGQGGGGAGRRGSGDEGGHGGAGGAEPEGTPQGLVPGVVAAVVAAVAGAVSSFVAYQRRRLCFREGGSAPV
# B3: Paired immunoglobulin-like type 2 receptor alpha (Homo sapiens), Q9UKJ1 (parent)
# chain: B1 chain
# partner: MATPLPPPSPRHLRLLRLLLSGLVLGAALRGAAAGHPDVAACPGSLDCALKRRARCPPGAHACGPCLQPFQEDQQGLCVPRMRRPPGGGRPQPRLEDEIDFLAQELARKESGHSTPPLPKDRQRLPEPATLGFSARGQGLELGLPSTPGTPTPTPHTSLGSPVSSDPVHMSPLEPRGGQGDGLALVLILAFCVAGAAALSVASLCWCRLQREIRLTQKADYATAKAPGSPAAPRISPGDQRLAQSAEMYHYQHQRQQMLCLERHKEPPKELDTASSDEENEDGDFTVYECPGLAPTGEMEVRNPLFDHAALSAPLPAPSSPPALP
# Variants of: B1
# Conditions: with col12_human COLEC12, Q5KU26
# Chain of col12_human COLEC12, Q5KU26 (Q5KU26 whole entry): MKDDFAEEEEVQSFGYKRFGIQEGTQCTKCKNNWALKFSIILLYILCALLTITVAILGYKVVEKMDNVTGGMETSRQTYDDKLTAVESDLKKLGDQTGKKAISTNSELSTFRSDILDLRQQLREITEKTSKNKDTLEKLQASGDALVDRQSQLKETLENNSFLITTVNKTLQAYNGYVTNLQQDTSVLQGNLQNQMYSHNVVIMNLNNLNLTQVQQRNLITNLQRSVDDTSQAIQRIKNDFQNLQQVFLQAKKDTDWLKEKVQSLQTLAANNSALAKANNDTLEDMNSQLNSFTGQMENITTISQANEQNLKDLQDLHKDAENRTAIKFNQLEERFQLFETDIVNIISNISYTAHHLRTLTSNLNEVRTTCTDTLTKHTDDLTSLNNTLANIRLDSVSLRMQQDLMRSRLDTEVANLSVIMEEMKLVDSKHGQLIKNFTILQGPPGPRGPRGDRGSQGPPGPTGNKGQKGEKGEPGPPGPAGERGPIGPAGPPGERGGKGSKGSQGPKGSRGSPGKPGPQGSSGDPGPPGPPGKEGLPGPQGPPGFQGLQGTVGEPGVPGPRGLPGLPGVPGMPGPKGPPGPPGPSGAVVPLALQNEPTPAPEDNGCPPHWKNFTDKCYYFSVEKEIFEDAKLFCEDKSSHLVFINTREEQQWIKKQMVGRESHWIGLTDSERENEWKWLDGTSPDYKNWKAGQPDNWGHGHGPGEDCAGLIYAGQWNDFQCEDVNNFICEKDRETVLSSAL
row,effect of a mutation on the interaction,Variant
1,disrupting interaction strength,R126A

# Variants of: B2
# Conditions: with cd99_mouse Cd99, Q8VCN6
row,effect of a mutation on the interaction,Variant
1,disrupting interaction strength,R126A

# Variants of: B3
# Conditions: with npdc1_human NPDC1, Q9NQX5
row,effect of a mutation on the interaction,Variant
1,disrupting interaction strength,R126A
